Data reported in patent publication US20240279321A1 (THERINI BIO, published 2024).
Numbering of substitutions follows the chain as printed. Values belong to the binder of their own block, whether it stands above or below them. Where no end group is shown, it is not given here. The star is where a group is joined. Biotin = O=C1N[C@H]2[C@H](CS[C@H]2CCCCC(=O)*)N1

Assays:
[1] = biological target: T1, Human fibrin γ377-395 (Human P2 peptide) (human); test: BLI (ForteBio Octet): N-term biotinylated fibrin P2G peptide on SA tip, IgG in solution 100 nM (avid)
T1 construct: In the crystal models, residues 410-421 of chain A are ordered; also called fibrin P2 peptide; fibrin P2 gamma peptide
T1 peptide: Biotin-YSMKKTTMKIIPFNRLTIG

[2] = biological target: T1, Human fibrin γ377-395 (Human P2 peptide); test: BLI (Octet): N-term biotinylated P2G peptide on SA sensor, 100nM Fab in solution
[3] = biological target: T1, Human fibrin γ377-395 (Human P2 peptide); test: BLI (ForteBio Octet): N-term biotinylated fibrin P2G peptide on SA tip, Fab in solution 100 nM (monovalent) [Cont.]
[4] = biological target: T1, Human fibrin γ377-395 (Human P2 peptide); test: BLI (ForteBio Octet): N-term biotinylated fibrin P2G peptide on SA tip, IgG in solution 100 nM (avid) [Cont.]
[5] = biological target: T1, Human fibrin γ377-395 (Human P2 peptide); test: ELISA of ADI-60143 Fab on NP2 peptide (human), RFU readout; drawn table, column Human
NP2 (Rabbit) [6] = biological target: T2, NP2 (Rabbit) (not fully specified (N-terminus)); test: ELISA of ADI-60143 Fab on NP2 peptide (rabbit), RFU readout; drawn table, column Rabbit
T2 construct: 'N-P2' elsewhere in the drawings stands for the N-term biotinylated P2 peptide; also called Rabbit P2 peptide; NP2 Fab (Rabbit) in the legend box of panel A
T2 peptide: YSMKKTTMKIIPLNRLSIG

Rat P2 peptide [7] = biological target: T3, Rat P2 peptide (rat); test: ELISA of ADI-60143 Fab on NP2 peptide (rat), RFU readout; drawn table, column Rat
T3 construct: also called Mouse/Rat P2 peptide
T3 peptide: YSMKETTMKIIPFNRLSIG

[8] = biological target: T1, Human fibrin γ377-395 (Human P2 peptide); test: BLI (Octet): N-term biotinylated P2G peptide on SA sensor, 100nM Fab in solution; the same panel stands twice in the middle row
[9] = biological target: T1, Human fibrin γ377-395 (Human P2 peptide); test: BLI (Octet RED384), Fab on P2 peptide; on-rate phase 0-300 s, off-rate phase 300-600 s
Rat P2 peptide [10] = biological target: T3, Rat P2 peptide; test: ELISA of ADI-60143 IgG on NP2 peptide (rat), RFU readout; drawn table, column Rat
[11] = biological target: T1, Human fibrin γ377-395 (Human P2 peptide); test: ELISA (N-P2 ELISA), RFU readout
Rat P2 peptide extended = biological target: T4, Rat P2 peptide extended (rat); test: ELISA of ADI-60143 IgG on Ext NP2 peptide (rat), RFU readout; drawn table, column Rat; the curve has no upper plateau at 500 nM
T4 construct: also called rat extended P2 peptide
T4 peptide: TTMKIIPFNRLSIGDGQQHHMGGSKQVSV

[12] = biological target: T5, Human P2 peptide extended (human); test: ELISA of ADI-60143 IgG on Ext NP2 peptide (human), RFU readout; drawn table, column Human
T5 construct: also called human extended P2 peptide
T5 peptide: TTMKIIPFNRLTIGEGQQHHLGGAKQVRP

[13] = biological target: T1, Human fibrin γ377-395 (Human P2 peptide); test: ELISA of ADI-60143 IgG on NP2 peptide (human), RFU readout; drawn table, column Human
NP2 (Rabbit) [14] = biological target: T2, NP2 (Rabbit); test: ELISA of ADI-60143 IgG on NP2 peptide (rabbit), RFU readout; drawn table, column Rabbit
Ext NP2 (Rabbit) = biological target: T6, Ext NP2 (Rabbit); test: ELISA of ADI-60143 IgG on Ext NP2 peptide (rabbit), RFU readout; drawn table, column Rabbit
T6 construct: also called Rabbit P2 peptide extended
T6 peptide: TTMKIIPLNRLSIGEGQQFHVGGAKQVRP

[15] = biological target: T1, Human fibrin γ377-395 (Human P2 peptide); test: BLI (ForteBio Octet): N-term biotinylated fibrin P2G peptide on SA tip, Fab in solution 100 nM (monovalent)
[16] = biological target: T1, Human fibrin γ377-395 (Human P2 peptide); test: ELISA (N-P2 ELISA), RFU readout; C is the duplicate of clone 61278
[17] = biological target: T1, Human fibrin γ377-395 (Human P2 peptide); test: BLI (ForteBio Octet): N-term biotinylated fibrin P2G peptide on SA tip, Fab in solution 100 nM (monovalent)
[18] = biological target: T1, Human fibrin γ377-395 (Human P2 peptide); test: BLI (ForteBio Octet): N-term biotinylated fibrin P2G peptide on SA tip, IgG in solution 100 nM (avid)

B1: 60140 (IgG) (antibody, V domains shown)
VH: QVQLVQSGAEVKKPGASVKVSCKASGYTFTSVWIHWVRQAPGQGLEWIGLIDPSDSYTNYNQKFRGRATLTVDTSTSTAYMELSSLRSEDTAVYYCASSRPTGGWGQGTTVTVSS
VL: DIVMTQSPLSLPVTPGEPASISCRSSKSLLHSSGITYLSWYLQKPGQSPQLLIYQMSNLASGVPDRFSGSGSGTDFTLKISRVEAEDVGVYYCAQNLELPLTFGGGTKVEIKR
binding result [1]: binds

B2: 56666 (parent) (Fab) (Fab, V domains shown)
VH: B1 VH with V32Y, I48M, A68V, L70M, R100D
VL: B1 VL
notes: also called ADI-56666; clone 56666 Fab
Kd [2]: 1300 nM

B3: 61285 (IgG) (antibody, V domains shown)
VH: B1 VH with V32S, I48M, A68V, L70M, R100D, T102H
VL: B1 VL with N96S
binding result [1]: binds

B4: 61255 (Fab) (Fab, V domains shown)
VH: B1 VH with V32Y, R100D, P101A
VL: B1 VL with I35H, S48P, N96A
notes: also called clone 61255 Fab
binding result [3]: binds

B6: Fab of antibody clone 60143 (ADI-60143 Fab) (Fab, V domains shown)
VH: B1 VH with V32T, R100K
VL: B1 VL
notes: The crystal model holds chain H residues 1-127 and 134-214 and chain L residues 1-213; not shown: The papain cleavage limit is not stat
EC50 [5]: 0.34 nM
EC50 (NP2 (Rabbit) [6]): 0.67 nM
EC50 (Rat P2 peptide [7]): 1.78 nM
Kd [8]: 23 nM
Kd [9]: 70 nM

B9: Fab of antibody clone 61278 (ADI-61278 Fab) (Fab, V domains shown, not shown: a dimerising Fc or GST)
VH: B1 VH with V32Y, I48M, A68V, L70M, R100D, P101A
VL: B1 VL with N96A
notes: The crystal model holds chain H residues 1-126 and 133-214 and chain L residues 1-213; also called Fab ADI61278
Kd [8]: 38 nM
Kd [9]: 104 nM

B10: antibody clone 60143 (full length ADI-60143 IgG) (antibody, V domains shown)
VH: B1 VH with V32T, R100K
VL: B1 VL
EC50 (Rat P2 peptide [10]): 0.094 nM
EC50 [11]: 0.08 nM
EC50 (Rat P2 peptide extended): 139 nM
EC50 [12]: 7.25 nM
EC50 [13]: 0.11 nM
EC50 (NP2 (Rabbit) [14]): 0.082 nM
EC50 (Ext NP2 (Rabbit)): 5.97 nM

B13: antibody clone 61278 (ADI-61278 IgG) (antibody, V domains shown)
VH: B1 VH with V32Y, I48M, A68V, L70M, R100D, P101A
VL: B1 VL with N96A
EC50 [11]: 0.13 nM
EC50 [16]: 0.11 nM

B19: 56657 (parent) (Fab) (Fab, V domains shown)
VH: B1 VH with V32Y, R100D
VL: B1 VL
notes: also called ADI-56657; clone 56657 Fab
Kd [2]: 264 nM

The remaining lines, values ahead:

binding result [4]: binds
B5: 61273 (IgG) (antibody, V domains shown)
VH: B1 VH with V32T, I48M, A68V, L70M, R100K
VL: B1 VL with L38I
notes: also called ADI-61273; clone 61273 IgG

binding result [4]: binds
B7: 61255 (IgG) (antibody, V domains shown)
VH: B1 VH with V32Y, R100D, P101A
VL: B1 VL with I35H, S48P, N96A
notes: also called clone 61255 IgG

binding result [3]: binds
B8: 60183 (Fab) (Fab, V domains shown)
VH: B1 VH with V32T, I48M, A68V, L70M, R100K
VL: B1 VL
notes: also called ADI-60183; clone 60183 Fab

binding result [15]: binds
B11: 61285 (Fab) (Fab, V domains shown)
VH: B1 VH with V32S, I48M, A68V, L70M, R100D, T102H
VL: B1 VL with N96S

binding result [1]: binds
B12: 61275 (IgG) (antibody, V domains shown)
VH: B1 VH with V32S, I48M, A68V, L70M, R100A
VL: B1 VL with N96A

binding result [17]: binds
B14: ADI-61283 (Fab) (Fab, V domains shown)
VH: B1 VH with V32A, I48M, A68V, L70M, R100D, T102Y
VL: B1 VL with L59K, N96S

binding result [3]: binds
B15: 61273 (Fab) (Fab, V domains shown)
VH: B1 VH with V32T, I48M, A68V, L70M, R100K
VL: B1 VL with L38I
notes: also called ADI-61273; clone 61273 Fab

binding result [15]: binds
B16: 60140 (Fab) (Fab, V domains shown)
VH: B1 VH
VL: B1 VL

binding result [4]: binds
B17: 60183 (IgG) (antibody, V domains shown)
VH: B1 VH with V32T, I48M, A68V, L70M, R100K
VL: B1 VL
notes: also called ADI-60183; clone 60183 IgG

binding result [18]: binds
B18: ADI-61283 (IgG) (antibody, V domains shown)
VH: B1 VH with V32A, I48M, A68V, L70M, R100D, T102Y
VL: B1 VL with L59K, N96S

binding result [15]: binds
B20: 61275 (Fab) (Fab, V domains shown)
VH: B1 VH with V32S, I48M, A68V, L70M, R100A
VL: B1 VL with N96A
